Laboratory results: patent US7709606B2, “Interacting polypeptide comprising a heptapeptide pattern and a cellular penetration domain” (Ecole Normale Superieure de Lyon, priority 2003, dated 2010)

Assays:
Jurkat cells = assay: intracellular entry, immunofluorescence in Jurkat cells; type: cell-based; details: 2 μM for one hour, analyzed 24 h later
Protocol: Light transmission and fluorescence images are shown for representative cells.
The immunofluorescence tests were carried out with a primary anti-FLAG antibody in a dilution of 1:500 incubated for 2 hours and a secondary antibody coupled to the Alexa Fluor 488 fluorophore (Molecular Probes) diluted 1:1000, incubated for one hour.
To confirm that SHPs do indeed enter the cell, immunofluorescence analyses were also carried out. Jurkat cells were incubated with 1 μM of SHP for 4 hours and after washing twice, the cells were cultured for 24 hours.

HIV-1-LA1 = assay: antiviral test in PHA-P activated PBMC, RT activity; type: cell-based; details: for Percentage inhibition, Mean: HIV-1 LA1, day 7
Protocol: (§1) These viruses were amplified in vitro with umbilical blood mononuclear cells (UBMC) activated with PHA-P. The cell-free supernatant was centrifuged at […] for 10 minutes to eliminate soluble factors, and the residue was re-suspended in cell culture medium. Virus stocks were titrated using PBMC cells activated with PHA-P and 50% tissue culture infectious doses (TCID50) were calculated using Kärber's formula.
PBMC cells were pre-treated for 30 minutes by 5 concentrations of each molecule and infected with 75 TCID50 of the HIV-1-LA1 strain. AZT (1.6, 8, 40, 200 and 1000 nM) and indinavir (1.6, 8, 40, 200 and 1000 nM) were used as the control. […] The molecules were maintained throughout culture, and the cellular supernatant was harvested 7 days post infection and stored at −20° C. to measure viral replication by reverse transcriptase activity (RT) assay.
(§2) HIV replication was analyzed by assaying the RT activity in the supernatants from cell cultures using the RetroSys RT kit (Innovagen). The experiments were carried out 3 times and the results are expressed as the mean of the RT activity±the standard deviation (SD).
In a last step, it was examined whether SHPs were actually capable of inhibiting HIV-1 replication. This was carried out in PBMCs activated by PHA-P and in MDMs. […] The effects of different SHPs was thus tested at this time. AZT and indinavir were used as controls.

HIV-1/Ba-L = assay: antiviral test in monocyte-derived macrophages (MDM), RT activity; type: cell-based; details: for Percentage inhibition, Mean: MDMs, HIV-1/Ba-L
Protocol: as §1
The MDM cells were pre-treated for 30 minutes in 6 concentrations of different molecules and infected with 30000 TCID50 of the HIV-1/Ba-L strain. AZT (0.8, 4, 20, 100 and 500 nM) and indinavir (0.8, 4, 20, 100 and 500 nM) were used as the control. […] The molecules were maintained for 7 days post infection, and the cellular supernatant was harvested 7, 14 and 21 days post infection and stored at −20° C. to measure viral replication by reverse transcriptase activity (RT) assay.
as §2

LexNES (NES of Rev) = LexNES (NES of Rev) (Human immunodeficiency virus type 1 group M subtype B, UniProt P04618); details: in words; method not stated
LexNES (NES of Rev), sequence (P04618 70-96): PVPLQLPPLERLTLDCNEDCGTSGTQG

Rev = Rev (Human immunodeficiency virus type 1 group M subtype B, UniProt P04618); details: HeLa cells
Protocol: This type of indicative construct allowed an evaluation of the effect of Rev, which by causing transport towards the cytoplasm of the non spliced RNA, allowed expression of the CAT enzyme.
The CAT activity was measured using the CAT ELISA kit (Roche).
The SHPR activity was evaluated using the reporter construct pDM128 which included the coding sequence CAT and an RRE motif in an intron. Expression of Rev stimulated expression of CAT allowing an unspliced messenger to be exported to the cytoplasm.
These various mutants were tested using a transitory expression system consisting of transfecting HeLa cells of the reporter plasmid having the CAT sequence associated with the RRE in the intronic position with expression vectors for the Rev protein and the SHPR protein. […] The separation between the two values was less than 20%.
These vectors were transfected with the reporter plasmid pDM128 and the expression vector Rev as described in the above sections (and in Roisin et al, JBC (2004) 279: 9208). The quantity of CAT protein is expressed as a % of that corresponding to transfection of parental SHPR. A value of more than 100 thus indicates a negative effect on the inhibiting power of SHPR and a lower value indicates an increase in this inhibiting property.

Rev/RRE association = Rev/RRE association (Human immunodeficiency virus type 1 group M subtype B, UniProt P04618); details: Rev produced in bacteria, RRE RNA probe
Protocol: To this end, gel retard experiments were carried out with a RNA molecule corresponding to the RRE element as the probe. The Rev protein produced in bacteria binds to this RNA and induces a non denaturing polyacrylamide gel migration retardation.

B1: SHPR-142: SUMO-1-heptapeptide-Tat PTD protein against Rev; heptapeptide Phe Trp Phe Cys Gly Leu Lys (SEQ ID NO: 2) (protein)
chain: MSDQEAKPSTEDLGDKKEGEYIKLKVIGQDSSEIHFKVKMTTHLKKLKESYCQRQGVPMNSLRFLFEGQRIADNHTPKELGMEEEDVIEVYQEQTARPPNPKKEIELGGGGSFWFCGLKPGRKKRRQRRRG
modifications: left off: small tags and cut ends
Q: B1 was tested. Which “immunofluorescence with antibody against FLAG” value (Jurkat cells) did it give?
A: The value was “diffuse fluorescence”.

Q: What about the “anti-HIV activity, replication of HIV-1-LA1” value (HIV-1-LA1; PBMC activated by PHA-P, 7th day, in words) of the same molecule?
A: The value was “reduced replication”.

Q: What about the “reduction of HIV-1 replication” value (HIV-1-LA1; PBMC activated with PHA-P, 2 μM) of the same molecule?
A: Its value is 73±6%.

Q: What about the ED70 (HIV-1-LA1; PBMCs, HIV-1-LA1, 7th day) of the same molecule?
A: The ED70 was 2.1 µM.

Q: And the ED90 (HIV-1-LA1; PBMCs, HIV-1-LA1, 7th day)?
A: The ED90 was 4.6 µM.

Q: And the “Percentage inhibition, Mean” value (HIV-1-LA1; PBMCs, Dose 31 (nM))?
A: The value was 0%.

Q: And the “Percentage inhibition, Mean” value (HIV-1-LA1; PBMCs, Dose 62.5 (nM))?
A: The value was 0%.

Q: And the “Percentage inhibition, Mean” value (HIV-1-LA1; PBMCs, Dose 125 (nM))?
A: The value was 0%.

Q: And the “Percentage inhibition, Mean” value (HIV-1-LA1; PBMCs, Dose 250 (nM))?
A: The value was 0%.

Q: What about the “Percentage inhibition, Mean” value (HIV-1-LA1; PBMCs, Dose 500 (nM)) of the same molecule?
A: The value was 19%.

Q: And the “Percentage inhibition, Mean” value (HIV-1-LA1; PBMCs, Dose 1000 (nM))?
A: The value was 26%.

Q: What about the “Percentage inhibition, Mean” value (HIV-1-LA1; PBMCs, Dose 2000 (nM)) of the same molecule?
A: The value was 73%.

Q: And the “inhibition of HIV replication” value (HIV-1/Ba-L; MDM, 1 μM)?
A: Its value is “not effect”.

Q: What about the “inhibition of HIV replication” value (HIV-1/Ba-L; MDM, 2 μM on day 14) of the same molecule?
A: The value was 44±10%.

Q: What about the “anti-HIV activity, HIV-1/Ba-L replication” value (HIV-1/Ba-L; MDM, in words) of the same molecule?
A: Its value is “slight inhibition of HIV replication”.

Q: What about the “Percentage inhibition, Mean” value (HIV-1/Ba-L; Day 7, dose 62.5 (nM)) of the same molecule?
A: Its value is 0%.

Q: What about the “Percentage inhibition, Mean” value (HIV-1/Ba-L; Day 7, dose 125 (nM)) of the same molecule?
A: Its value is 0%.

Q: And the “Percentage inhibition, Mean” value (HIV-1/Ba-L; Day 7, dose 250 (nM))?
A: The value was 0%.

Q: What about the “Percentage inhibition, Mean” value (HIV-1/Ba-L; Day 7, dose 500 (nM)) of the same molecule?
A: The value was 0%.

Q: What about the “Percentage inhibition, Mean” value (HIV-1/Ba-L; Day 7, dose 1000 (nM)) of the same molecule?
A: Its value is 3%.

Q: And the “Percentage inhibition, Mean” value (HIV-1/Ba-L; Day 7, dose 2000 (nM))?
A: The value was 35%.

Q: And the “Percentage inhibition, Mean” value (HIV-1/Ba-L; Day 14, dose 62.5 (nM))?
A: Its value is 0%.

Q: What about the “Percentage inhibition, Mean” value (HIV-1/Ba-L; Day 14, dose 125 (nM)) of the same molecule?
A: Its value is 0%.

Q: What about the “Percentage inhibition, Mean” value (HIV-1/Ba-L; Day 14, dose 250 (nM)) of the same molecule?
A: Its value is 0%.

Q: And the “Percentage inhibition, Mean” value (HIV-1/Ba-L; Day 14, dose 500 (nM))?
A: The value was 0%.

Q: And the “Percentage inhibition, Mean” value (HIV-1/Ba-L; Day 14, dose 1000 (nM))?
A: Its value is 0%.

Q: And the “Percentage inhibition, Mean” value (HIV-1/Ba-L; Day 14, dose 2000 (nM))?
A: Its value is 44%.

Q: What about the “Percentage inhibition, Mean” value (HIV-1/Ba-L; Day 21, dose 62.5 (nM)) of the same molecule?
A: Its value is 0%.

Q: And the “Percentage inhibition, Mean” value (HIV-1/Ba-L; Day 21, dose 125 (nM))?
A: The value was 0%.

Q: And the “Percentage inhibition, Mean” value (HIV-1/Ba-L; Day 21, dose 250 (nM))?
A: The value was 0%.

Q: What about the “Percentage inhibition, Mean” value (HIV-1/Ba-L; Day 21, dose 500 (nM)) of the same molecule?
A: Its value is 0%.

Q: What about the “Percentage inhibition, Mean” value (HIV-1/Ba-L; Day 21, dose 1000 (nM)) of the same molecule?
A: The value was 0%.

Q: What about the “Percentage inhibition, Mean” value (HIV-1/Ba-L; Day 21, dose 2000 (nM)) of the same molecule?
A: The value was 18%.

Q: What about the “interaction with the NES signal of Rev” value (LexNES (NES of Rev)) of the same molecule?
A: Its value is “interacts with Rev NES”.

Q: And the “inhibition of the function of Rev (CAT from pDM128)” value (Rev)?
A: The value was “effective inhibitors of the function of Rev”.

Q: What about the “effect on Rev/RRE association (gel retardation)” value (Rev/RRE association) of the same molecule?
A: Its value is “did not inhibit this association”.
